Reference: US20040106120A1, “Diagnosis and treatment of disease” (priority 2000, published 2004)
Values belong to the molecule of their own block, whether it stands above or below them.

How the values were obtained:
cultured skin equivalent = experiment: Treatment of skin equivalents with other protease inhibitors for 24 h, light and electron microscopy; format: cell-based; conditions: SLPI 500 nM, cultured for 24 h
Description: Skin equivalent (+ and − inhibitor) is cultured with the inhibitor for 24 h. Skin equivalent are taken the preparation of histological sections. Sections are then analysed by light and electron microscopy.
SLPI (500 nM) is added to cultured skin equivalent, and cultured for 24 h. Skin equivalent (+ and − SLPI) are taken the preparation of sections. Sections are then analysed in light and electron microscopy.
SCCE antibody is added is added to cultured skin equivalent, and cultured for 24 h. Skin equivalent (+ and − SCCE antibodies) are taken the preparation of sections. Sections are then analysed in light and electron microscopy.
SCTE antibody is added is added to cultured skin equivalent, and cultured for 24 h. Skin equivalent (+ and − SCTE antibodies) are taken the preparation of sections. Sections are then analysed in light and electron microscopy.

[1] = Topical protease inhibitor in emollient cream on volunteer's arm skin for 14 days, biopsy histology; format: in vivo; conditions: human volunteer, emollient cream applied daily to arm for 14 days under occlusion
Source text: SPLI protease inhibitor is extracted from normal human skin of a volunteer. Alternatively, a nucleic acid sequence encoding the protease inhibitor from the individual is cloned using PCR, or library screening. The individual's protease inhibitor sequence is cloned into an expression vector, and recombinant protease inhibitor expressed and purified using conventional and known means.
The inhibitor is then formulated in an emollient cream base. Two fingertip units of this formulation are applied to an area of the volunteer's skin on the arm measuring 2×2 cm. The area is covered with a plastic capsule which is secured in place with a cotton bandage. The cream is reapplied to the same area each day for 14 consecutive days.
On day 14 the cup is removed and a 1×0.5 cm ellipse skin biopsy is taken from the treated area and a similar biopsy taken from an untreated area on the opposite arm.

Corneodesmosin = molecular target: T1, Corneodesmosin (Homo sapiens, UniProt Q15517); experiment: Cleavage of adhesion proteins from human epidermis by recombinant SCCE/SCTE (immunoblot); format: biochemical; conditions: human epidermis protein extract incubated with active recombinant enzyme at 37 C
T1 construct: The native form of corneodesmosin has a molecular weight of between 50 and 56 kDa; from tissue; host or cells: human epidermis (TENP-40 buffer extract)
T1 sequence (Q15517 33-529): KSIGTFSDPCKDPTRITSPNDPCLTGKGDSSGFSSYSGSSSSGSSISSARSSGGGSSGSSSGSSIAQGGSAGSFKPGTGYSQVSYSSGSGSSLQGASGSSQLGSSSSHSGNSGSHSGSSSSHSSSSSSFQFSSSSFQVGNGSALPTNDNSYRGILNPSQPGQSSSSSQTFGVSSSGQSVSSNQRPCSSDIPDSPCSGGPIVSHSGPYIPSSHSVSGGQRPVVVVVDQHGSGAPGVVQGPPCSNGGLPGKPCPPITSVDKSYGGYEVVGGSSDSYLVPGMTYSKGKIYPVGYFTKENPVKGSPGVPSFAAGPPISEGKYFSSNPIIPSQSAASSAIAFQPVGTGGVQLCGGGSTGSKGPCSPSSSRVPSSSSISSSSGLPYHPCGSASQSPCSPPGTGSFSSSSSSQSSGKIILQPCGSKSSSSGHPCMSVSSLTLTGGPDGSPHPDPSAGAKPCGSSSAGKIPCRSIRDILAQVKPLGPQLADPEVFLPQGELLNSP
Description: (§1) Recombinant ProSCCE is produced and purified as described above. Recombinant ProSCCE is activated with agarose-bound trypsin, as described in Brasttsand & Egelrud, 1999.
(§2) Proteins are extracted from human epidermis in the presence of a detergent (TENP-40 buffer extract) and incubated with active SCCE for 37 C. for 4 h. The reactions are stopped by boiling for 2 mins after Laemmli's sample buffer is added. The proteins are immunoblotted with antibodies against corneodesmosomal proteins.

Desmocollin = experiment: as above; format: biochemical; conditions: human epidermis protein extract incubated with active recombinant enzyme at 37 C
Description: as §1, §2

Desmoglein = experiment: as above; format: biochemical; conditions: human epidermis protein extract incubated with active recombinant enzyme at 37 C
Description: as §1, §2

Desmoplakin = experiment: as above; format: biochemical; conditions: human epidermis protein extract incubated with active recombinant enzyme at 37 C
Description: as §1, §2

Envoplakin = molecular target: T2, Envoplakin (Homo sapiens, UniProt Q92817); experiment: as above; format: biochemical; conditions: human epidermis protein extract incubated with active recombinant enzyme at 37 C
T2 construct: The native form of Envoplakin has a molecular weight of between 124-209 kDa; from tissue; host or cells: human epidermis (TENP-40 buffer extract)
T2 sequence (Q92817 whole entry): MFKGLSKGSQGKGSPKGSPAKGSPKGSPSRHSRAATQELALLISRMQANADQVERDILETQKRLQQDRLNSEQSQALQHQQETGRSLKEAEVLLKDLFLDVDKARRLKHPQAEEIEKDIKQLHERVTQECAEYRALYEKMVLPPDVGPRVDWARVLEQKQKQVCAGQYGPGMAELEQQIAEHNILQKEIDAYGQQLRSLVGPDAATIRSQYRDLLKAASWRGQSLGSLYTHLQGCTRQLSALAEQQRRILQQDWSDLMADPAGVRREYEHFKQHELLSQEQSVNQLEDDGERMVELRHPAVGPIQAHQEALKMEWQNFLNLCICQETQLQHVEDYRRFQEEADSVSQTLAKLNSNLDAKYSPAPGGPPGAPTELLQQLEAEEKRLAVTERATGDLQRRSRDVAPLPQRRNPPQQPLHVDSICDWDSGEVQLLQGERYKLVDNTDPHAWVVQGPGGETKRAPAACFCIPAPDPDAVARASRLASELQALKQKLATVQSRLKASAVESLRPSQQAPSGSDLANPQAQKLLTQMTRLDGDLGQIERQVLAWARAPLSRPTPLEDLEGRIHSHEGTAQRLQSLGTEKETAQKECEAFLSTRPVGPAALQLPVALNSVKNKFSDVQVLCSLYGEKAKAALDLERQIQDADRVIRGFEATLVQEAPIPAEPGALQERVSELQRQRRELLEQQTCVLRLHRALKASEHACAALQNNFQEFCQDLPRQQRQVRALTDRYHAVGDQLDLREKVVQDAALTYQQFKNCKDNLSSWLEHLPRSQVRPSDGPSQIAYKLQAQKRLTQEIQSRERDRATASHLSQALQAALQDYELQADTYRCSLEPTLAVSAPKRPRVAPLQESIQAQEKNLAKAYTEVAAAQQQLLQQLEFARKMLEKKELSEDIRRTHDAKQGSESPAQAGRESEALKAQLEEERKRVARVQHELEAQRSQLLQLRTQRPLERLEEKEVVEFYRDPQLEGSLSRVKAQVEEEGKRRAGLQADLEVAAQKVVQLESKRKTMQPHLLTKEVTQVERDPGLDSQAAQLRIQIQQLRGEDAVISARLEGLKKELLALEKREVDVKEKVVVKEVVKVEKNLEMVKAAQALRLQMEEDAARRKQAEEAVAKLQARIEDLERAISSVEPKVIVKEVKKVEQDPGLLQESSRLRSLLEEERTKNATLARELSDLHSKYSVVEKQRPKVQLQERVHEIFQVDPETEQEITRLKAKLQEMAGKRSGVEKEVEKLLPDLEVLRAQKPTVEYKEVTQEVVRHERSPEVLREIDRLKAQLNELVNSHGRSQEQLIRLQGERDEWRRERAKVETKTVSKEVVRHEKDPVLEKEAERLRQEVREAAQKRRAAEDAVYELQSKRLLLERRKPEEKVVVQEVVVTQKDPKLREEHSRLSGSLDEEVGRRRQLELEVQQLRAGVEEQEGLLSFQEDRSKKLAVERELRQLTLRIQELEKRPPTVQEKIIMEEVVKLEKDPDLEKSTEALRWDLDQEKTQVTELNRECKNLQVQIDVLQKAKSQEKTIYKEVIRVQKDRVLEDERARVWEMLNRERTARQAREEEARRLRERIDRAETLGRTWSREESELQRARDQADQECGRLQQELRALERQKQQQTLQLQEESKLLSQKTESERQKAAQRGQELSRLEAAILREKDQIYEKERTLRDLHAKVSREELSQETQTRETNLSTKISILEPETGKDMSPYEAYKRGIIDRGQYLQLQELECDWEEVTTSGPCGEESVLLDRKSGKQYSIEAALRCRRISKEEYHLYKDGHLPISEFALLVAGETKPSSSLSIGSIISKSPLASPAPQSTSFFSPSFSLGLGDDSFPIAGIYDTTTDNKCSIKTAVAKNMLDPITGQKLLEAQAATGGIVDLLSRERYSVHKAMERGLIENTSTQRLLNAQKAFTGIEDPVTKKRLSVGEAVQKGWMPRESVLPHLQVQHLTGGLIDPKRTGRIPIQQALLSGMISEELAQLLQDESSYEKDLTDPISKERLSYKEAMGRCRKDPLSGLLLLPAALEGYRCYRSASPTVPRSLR
Description: as §1, §2

Plakoglobin = molecular target: T3, Plakoglobin (Homo sapiens, UniProt P14923); experiment: as above; format: biochemical; conditions: human epidermis protein extract incubated with active recombinant enzyme at 37 C
T3 construct: The native form of plakoglobin has a molecular weight of between 85 kDa and 75 kDa; from tissue; host or cells: human epidermis (TENP-40 buffer extract)
T3 sequence (P14923 1-745): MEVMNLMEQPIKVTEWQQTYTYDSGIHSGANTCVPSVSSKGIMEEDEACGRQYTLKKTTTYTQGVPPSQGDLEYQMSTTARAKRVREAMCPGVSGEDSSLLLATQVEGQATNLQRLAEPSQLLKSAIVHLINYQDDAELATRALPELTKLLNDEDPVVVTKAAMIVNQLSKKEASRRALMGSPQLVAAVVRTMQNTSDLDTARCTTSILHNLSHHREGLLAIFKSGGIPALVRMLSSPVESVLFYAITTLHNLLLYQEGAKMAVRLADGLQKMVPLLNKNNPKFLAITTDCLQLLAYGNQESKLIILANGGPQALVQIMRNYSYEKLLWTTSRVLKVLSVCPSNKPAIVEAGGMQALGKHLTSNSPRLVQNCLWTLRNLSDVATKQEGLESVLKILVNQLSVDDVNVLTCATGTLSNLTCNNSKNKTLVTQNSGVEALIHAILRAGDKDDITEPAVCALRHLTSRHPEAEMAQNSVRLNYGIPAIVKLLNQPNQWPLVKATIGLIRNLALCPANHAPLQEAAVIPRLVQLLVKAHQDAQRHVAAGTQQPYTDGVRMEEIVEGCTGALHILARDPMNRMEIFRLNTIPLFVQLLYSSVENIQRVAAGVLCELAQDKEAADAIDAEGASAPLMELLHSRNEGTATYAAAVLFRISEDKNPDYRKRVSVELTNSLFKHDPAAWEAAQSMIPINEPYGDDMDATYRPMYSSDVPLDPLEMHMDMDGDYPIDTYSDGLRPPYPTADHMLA
Description: as §1, §2

[2] = test system: corneodesmosomes in stratum corneum tape strips; experiment: Treatment of tape strips from psoriatic skin with proteases, corneodesmosome density by electron microscopy; design: species or system human; conditions: 22-50 nM recombinant SCCE or SCTE, 1-6 h at 37° C
Description: Tape strips are obtained according to a method described by Guerrin et al, 1998.
Small pieces of tape strips from control patients along with patients suffering from the skin conditions eczema, psoriasis, dermatitis and psoriasis are fixed for 2 h at 4° C. in Karnovsky fixative (2% paraformaldehyde, 2.5% gluteraldehyde in 0.1M phosphate buffer, pH 7.4). The samples are then washed three times in 0.1M phosphate buffer (pH7.4) containing 10% sucrose for 30 minutes each at 4° C.
Secondary fixation is carried out in aqueous 2% osmium tetroxide solution for 1 hour at room temperature. Dehydration is through a graded series of ethanol at room temperature (75% ethanol for 15 minutes; 95% ethanol for 15 minutes; 2 washes of 100% ethanol for 15 minutes; 100% ethanol dried over anhydrous copper sulphate for 15 minutes).
For resin embedding, samples are first placed in the intermediate solvent, propylene oxide, for two changes of 15 minutes duration. This is followed by infiltration in a 50:50 mixture of propylene oxide:araldite resin overnight at room temperature. […]
Ultrathin sections (70-90 nm) are cut on an ultramicrotome. […] Electron micrographs are recorded on Agfa Scientific 23D56 EM film.
Corneodesmosome density (area occupied by corneodesmosomes divided by total area of micrograph) is measured on electron micrographs of tape strips of each condition. […]

B1: SLPI: Secretory Leukoprotease Inhibitor protein added to cultured skin equivalent (protein, UniProt P03973 26-132, looked up)
Antileukoproteinase: SGKSFKAGVCPPKKSAQCLRYKKPECQSDWQCPGKKRCCPDTCGIKCLDPVDTPNPTRRKPGKCPVTYGQCLMLNPPNFCEMDGQCKRDLKCCMGMCGKSCVSPVKA
effect on stratum corneum thickness and skin barrier of skin equivalent (cultured skin equivalent): increase the thickness of the stratum corneum

B2: SPLI protease inhibitor: SLPI extracted from normal human skin or recombinant, formulated in an emollient cream base (protein, UniProt P03973 26-132, looked up)
Antileukoproteinase: B1 Antileukoproteinase
modifications: emollient cream formulation
notes: SLPI extracted from normal human skin or recombinant, formulated in an emollient cream base
histology of stratum corneum, treated biopsy compared with control [1]: thickening of the stratum corneum with loosely adherent scales
histology of viable epidermis, treated biopsy compared with control [1]: parakeratosis and thickening

proteolysis of Corneodesmosin (Corneodesmosin): proteolysed
proteolysis of Envoplakin (Envoplakin): proteolysed
proteolysis of Plakoglobin (Plakoglobin): proteolysed
B3: SCCE: recombinant Stratum Corneum Chymotryptic Enzyme, activated with agarose-bound trypsin (protein, UniProt P49862 30-253, looked up)
Kallikrein-7: IIDGAPCARGSHPWQVALLSGNQLHCGGVLVNERWVLTAAHCKMNEYTVHLGSDTLGDRRAQRIKASKSFRHPGYSTQTHVNDLMLVKLNSQARLSSMVKKVRLPSRCEPPGTTCTVSGWGTTTSPDVTFPSDLMCVDVKLISPQDCTKVYKDLLENSMLCAGIPDSKKNACNGDSGGPLVCRGTLQGLVSWGTFPCGQPNDPGVYTQVCKFTKWINDTMKKHR
modifications: activated with trypsin
proteolysis of Desmocollin (Desmocollin): proteolysed
proteolysis of Desmoglein (Desmoglein): proteolysed
proteolysis of Desmoplakin (Desmoplakin): proteolysed
number of corneodesmosomes in treated versus untreated stratum corneum [2]: decrease significantly
